Target: CXCR4 (human (endogenous in HeLa)) (UniProt P61073)
Experiment: flow cytometry on cells; competition on HeLa cells: 100 nM sfGFP(Y151pAzF)-SDF-1β coincubated with 1 μM commercial SDF-1β (R&D) or 1 μM CXCR4 blocking agent AMD3100; 10 000 cells per sample

Sequence of UniProt P61073 (P61073 whole entry): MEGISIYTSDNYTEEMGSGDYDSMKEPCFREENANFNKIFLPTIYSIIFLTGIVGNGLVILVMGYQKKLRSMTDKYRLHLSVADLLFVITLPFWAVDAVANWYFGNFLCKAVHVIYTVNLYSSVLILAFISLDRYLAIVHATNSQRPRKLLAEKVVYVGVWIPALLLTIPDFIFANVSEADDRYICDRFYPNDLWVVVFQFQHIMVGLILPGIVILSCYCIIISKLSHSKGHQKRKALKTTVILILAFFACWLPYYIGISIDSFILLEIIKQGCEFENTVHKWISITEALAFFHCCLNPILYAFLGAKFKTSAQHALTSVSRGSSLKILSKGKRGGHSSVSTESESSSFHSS

**Q.** With sfGFP(Y151pAzF)-SDF-1β (ligand) as the substance, how does the percent decrease of binding to HeLa cells with 1 μM AMD3100 (CXCR4 blocking agent) read?
**A.** Its percent decrease of binding to HeLa cells with 1 μM AMD3100 (CXCR4 blocking agent) is 30%.
